Laboratory results: patent publication US20210155689A1 (SHANGHAI PHARMAEXPLORER, published 2021)

B1: 405B8H3 (mouse antibody purified from hybridoma) (antibody, V domains shown)
VH: QVQLQQSGAELVRPGASVTLSCKASGYTFTDYEMHWVKQTPVHGLEWIGATDPETGNSAYNQKFKGKAIMTADKSSSTAYMELRSLTSEDSAVYYCISTGWNDWGQGTSLTVSS
VL: DIKMTQSPSSMYASLGERVTITCKASQDINSYLSWFQQKPGKSPKTLIYRADRLLDGVPSRFSGSGSGQDYSLTISSLEYGDMGIYYCLQYDEFPYTFGGGTKLEIK
notes: also called mAb103-405B8H3; 405B81-13
B2: 105F1E10 (mouse antibody purified from hybridoma) (antibody, V domains shown)
VH: EVQLQQSGPELVKPGASVKMSCRASGYTFTDFKMHWMKQSHGKSLEWIGYIAPNNGGTAYNQKFRGKATLTVNESSNTAYMELRSLTSEDSAVYYCVDWDDVDYWGQGTTLTVSS
VL: DIKMTQSPSSMYASLGERVTITCKASQDINSYLSWFQQKSGKSPKTLIYRANRLVDGVPSRFSGSGSGQDYSLTISSLEYEDMGIYYCLQYVEFPLTFGAGTKLELK
notes: also called mAb009-105F1E10
B3: 105F1E10 mouse-human chimeric antibody (antibody, V domains shown)
VH: EVQLQQSGPELVKPGASVKMSCRASGYTFTDFKMHWMKQSHGKSLEWIGYIAPNNGGTAYNQKFRGKATLTVNESSNTAYMELRSLTSEDSAVYYCVDWDDVDYWGQGTTLTVSS
VL: DIKMTQSPSSMYASLGERVTITCKASQDINSYLSWFQQKSGKSPKTLIYRANRLVDGVPSRFSGSGSGQDYSLTISSLEYEDMGIYYCLQYVEFPLTFGAGTKLELK
notes: also called mAb009-105F1E10
B4: 405B8H3 mouse-human chimeric antibody (antibody, V domains shown)
VH: QVQLQQSGAELVRPGASVTLSCKASGYTFTDYEMHWVKQTPVHGLEWIGATDPETGNSAYNQKFKGKAIMTADKSSSTAYMELRSLTSEDSAVYYCISTGWNDWGQGTSLTVSS
VL: DIKMTQSPSSMYASLGERVTITCKASQDINSYLSWFQQKPGKSPKTLIYRADRLLDGVPSRFSGSGSGQDYSLTISSLEYGDMGIYYCLQYDEFPYTFGGGTKLEIK
notes: also called mAb103-405B8H3

Assays:
[1] = target: T1, human LAG-3 protein with hFc tag (hLAG-3-hFc protein) (human, UniProt P18627 23-450); assay: FACS, blocks LAG-3-hFc binding to MHC II on Raji; 0.823 nM
T1 construct: also called immunogen 1; LAG-3 extracellular domain protein; not shown: human IgG Fc fragment (hFc) of the pCpC vector
T1 sequence: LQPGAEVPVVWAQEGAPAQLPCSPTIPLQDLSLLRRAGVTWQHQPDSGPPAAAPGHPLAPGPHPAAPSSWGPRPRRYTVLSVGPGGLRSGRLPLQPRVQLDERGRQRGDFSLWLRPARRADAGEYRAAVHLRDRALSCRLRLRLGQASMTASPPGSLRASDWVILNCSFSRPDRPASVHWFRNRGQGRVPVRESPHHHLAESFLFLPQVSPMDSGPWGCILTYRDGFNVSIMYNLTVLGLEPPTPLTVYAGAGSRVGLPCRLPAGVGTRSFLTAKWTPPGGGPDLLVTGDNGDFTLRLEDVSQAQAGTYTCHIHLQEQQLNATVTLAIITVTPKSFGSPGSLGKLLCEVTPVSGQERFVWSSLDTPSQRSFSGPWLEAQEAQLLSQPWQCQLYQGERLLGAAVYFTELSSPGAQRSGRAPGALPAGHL
Method: (§1) The FACS reaction plate incubating the Raji cells was centrifuged to discard the supernatant. The above mixture was added as 100 μl per well to Raji cells and incubated on ice for 1-2 hours. The plate was washed twice with blocking solution (PBS, 2% fetal bovine serum) by centrifugation, added with 100 microliters of fluorescent (Alexa 488)-labeled secondary antibodies per well, and incubated on ice for 1.0 hours. The plate was washed 2-3 times by centrifugation with blocking solution (PBS, 2% fetal bovine serum), added with 100 microliters of PBS per well to suspend cells, and detected using FACS (FACS Calibur, BD) and the results were analyzed. Wherein, the IgG control was murine IgG, and the data in the table is the inhibition rate (%).

[2] = target: T1, human LAG-3 protein with hFc tag …; assay: FACS, blocks LAG-3-hFc binding to MHC II on Raji; 0.274 nM
Method: as §1

[3] = target: T2, human LAG-3 on cells (HEK293-hLAG-3 stable cell line) (human, UniProt P18627 23-525); assay: FACS, HEK293-hLAG-3, antibody 1.600 nM
T2 sequence: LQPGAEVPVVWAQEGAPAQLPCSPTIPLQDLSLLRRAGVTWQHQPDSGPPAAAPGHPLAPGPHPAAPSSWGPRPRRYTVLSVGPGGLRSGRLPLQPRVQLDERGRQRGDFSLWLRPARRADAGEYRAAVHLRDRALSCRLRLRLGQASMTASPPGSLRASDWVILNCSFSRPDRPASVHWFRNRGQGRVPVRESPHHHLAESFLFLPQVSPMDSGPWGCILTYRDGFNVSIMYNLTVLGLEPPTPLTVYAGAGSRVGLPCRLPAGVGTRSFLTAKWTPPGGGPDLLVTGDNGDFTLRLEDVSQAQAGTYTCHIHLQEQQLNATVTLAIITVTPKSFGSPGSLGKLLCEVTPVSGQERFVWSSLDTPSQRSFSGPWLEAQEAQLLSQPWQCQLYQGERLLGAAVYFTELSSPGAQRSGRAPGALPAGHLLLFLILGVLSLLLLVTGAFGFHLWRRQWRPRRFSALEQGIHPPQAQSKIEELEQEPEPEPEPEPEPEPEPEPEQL
Excerpt: (§2) The pIRES plasmid with the monkey-derived full-length gene was transfected into the HEK293 cell line to construct a HEK293 stable cell line containing monkey LAG-3 (herein referred to as HEK293-cLAG-3 stable cell line). The HEK293-hLAG-3 stable cell line and HEK293-cLAG-3 stable cell line were expanded in a T-75 cell culture flask to a 90% confluence. The medium was aspirated, and the cells were washed with HBSS (Hanks' Balanced Salt Solution) 1-2 times, then treated with a enzyme-free cell dissociation fluid (Versene solution: Life technology) and the cells were collected. The cells were washed with HBSS buffer for 1-2 times. After counted, the cells were diluted with HBSS to 1-2×10⁶ cells per ml, added with 1% goat serum blocking solution, incubated on ice for 20-30 minutes, and then washed with HBSS for 2 times by centrifugation. The collected cells were suspended in the FACS buffer (HBSS+1% BSA) to 2×10⁶ cells/ml, added as 100 microliters per well to a 96-well FACS reaction plate, added with 100 microliters per well of the antibody sample to be tested, incubated on ice for 1-2 hours. The plate was washed twice with the FACS buffer by centrifugation, added with 100 microliters of fluorescent (Alexa 488)-labeled secondary antibodies per well, and incubated on ice for 0.5-1.0 hours. The plate was washed 2-3 times with FACS buffer by centrifugation, added with 100 μl fixative solution (4% Paraformaldehyde) per well to suspend the cells. 5-10 minutes later, it was washed 1-2 times with FACS buffer by centrifugation. The cells were suspended with 100 microliters of FACS buffer, FACS (FACSCalibur, BD) was used for detection and the results were analyzed.

[4] = target: T2, human LAG-3 on cells (HEK293-hLAG-3 …); assay: FACS, HEK293-hLAG-3, antibody 200.000 nM
Excerpt: as §2

[5] = target: T3, LAG-3-hFc protein (human LAG-3 extracellular region with hFc tag) (human, UniProt P18627 23-450); assay: FACS, inhibition of LAG-3-hFc binding to MHC II on Raji cells, antibody 66.667 nM
T3 construct: also called hLAG-3-hFc; LAG-3 protein; not shown: human IgG Fc fragment (hFc) of the pCpC vector
T3 sequence: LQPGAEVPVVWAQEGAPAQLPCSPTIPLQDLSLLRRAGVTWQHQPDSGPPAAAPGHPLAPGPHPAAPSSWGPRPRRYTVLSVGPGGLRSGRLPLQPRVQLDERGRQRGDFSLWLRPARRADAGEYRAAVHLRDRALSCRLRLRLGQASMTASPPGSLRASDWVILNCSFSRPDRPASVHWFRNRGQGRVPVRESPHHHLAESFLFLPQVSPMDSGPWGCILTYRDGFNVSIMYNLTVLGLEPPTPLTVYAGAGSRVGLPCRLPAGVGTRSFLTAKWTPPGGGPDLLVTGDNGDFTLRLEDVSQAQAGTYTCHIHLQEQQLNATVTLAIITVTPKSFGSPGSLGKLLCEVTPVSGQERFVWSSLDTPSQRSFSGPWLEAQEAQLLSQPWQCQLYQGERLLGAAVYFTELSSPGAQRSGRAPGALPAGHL
Method: as §1

[6] = target: T2, human LAG-3 on cells (HEK293-hLAG-3 …); assay: cell-based or functional assay

Binder | Inhibition rate (%) [1] | Inhibition rate (%) [2] | Mean fluorescence intensity [3] | Mean fluorescence intensity [4] | Inhibition rate (%) [5] | IL-2 production, antigen-specific T lymphocyte stimulation test, 0.016 ug/ml, N = 1 [6] | IL-2 production, antigen-specific T lymphocyte stimulation test, 0.016 ug/ml, N = 2 [6] | IL-2 production, antigen-specific T lymphocyte stimulation test, 0.08 ug/ml, N = 1 [6] | IL-2 production, antigen-specific T lymphocyte stimulation test, 0.08 ug/ml, N = 2 [6] | IL-2 production, antigen-specific T lymphocyte stimulation test, 0.4 ug/ml, N = 1 [6] | IL-2 production, antigen-specific T lymphocyte stimulation test, 0.4 ug/ml, N = 2 [6] | IL-2 production, antigen-specific T lymphocyte stimulation test, 2 ug/ml, N = 1 [6] | IL-2 production, antigen-specific T lymphocyte stimulation test, 2 ug/ml, N = 2 [6] | IL-2 production, antigen-specific T lymphocyte stimulation test, 10 ug/ml, N = 1 [6] | IL-2 production, antigen-specific T lymphocyte stimulation test, 10 ug/ml, N = 2 [6]
B1 | 10.9% | 2.1% | – | – | – | – | – | – | – | – | – | – | – | – | –
B2 | 7% | -8.3% | – | – | – | – | – | – | – | – | – | – | – | – | –
B3 | – | – | 34.7 | 175 | 96% | 452 pg/mL | 420 pg/mL | 437 pg/mL | 467 pg/mL | 779 pg/mL | 757 pg/mL | 853 pg/mL | 792 pg/mL | 850 pg/mL | 627 pg/mL
B4 | – | – | 62.3 | 169 | 95.8% | 366 pg/mL | 420 pg/mL | 666 pg/mL | 559 pg/mL | 883 pg/mL | 986 pg/mL | 876 pg/mL | 825 pg/mL | 770 pg/mL | 789 pg/mL
